Measurements published in PMC5023229, “Role of NAD^+-Dependent Malate Dehydrogenase in the Metabolism of Methylomicrobium alcaliphilum 20Z and Methylosinus trichosporium OB3b” (Microorganisms, 2015).

B1: MDH from M. alcaliphilum 20Z (MDH-20Z) (Methylotuvimicrobium alcaliphilum 20Z) (protein)
chain: MKTPVKIAVTGAAGQISYSLLFRLASGELLGPDQPMIFHLLETPQALALGALNGVVMELNDCAYPLLHKIVTTDDPDVAFKDVDYAFLIGASPRKPGMERKDLLAINAQIFSVQGQALSKVASRDVKVLVTGNPANTNALIAISNAPDLRPENFSAMMMLDHKRATFQLADKCGVLSNDIKNIIIWGNHSAGQYPDLHHAKVKGQDALSLVEWDWFVDKFIPTVQQRGAVVIQAVGRSSAASAANAALNLMRNWVFGTDEGNWISMAVPSDGSYGIEKDLVYSFPVEIKNGEISIVQGLEISDFSREKMRKSEAELKEEREAVKHLL
notes: full-length, C-terminal His6 (pET22b NdeI/XhoI), E. coli BL21 (DE3), Ni-NTA; homodimer 70 kDa
B2: MDH from M. trichosporium OB3b (MDH-OB3b) (Methylosinus trichosporium OB3b) (protein)
chain: MARKKIALIGAGNIGGTLAHLIGLKELGDIVLFDIAAGVPQGKALDLAQSSPVSGFDATISGADDYSAIAGADVVIVTAGVPRQPGMSRDDLLSVNLGVVSKVGAGIKTYAPDAFVICITNPLDVMVWALQKCSGLPPAKVVGMAGVLDSARFRYFLAEELQVSVEDVSAFVLGGHGDDMVPSVRYSTVAGVPLPDLVGMGWITQAKIDAIVERTRKGGGEIVSLLKTGSAYYAPAASAIAMAESYLKDKRRVLPCAAHLSGQYGVSDLYVGVPVVIGANGVERIVEISLDSAERQMFDKSVASVRTLIAASKALDPSFA
notes: full-length, C-terminal His6 (pET22b NdeI/XhoI), E. coli BL21 (DE3), Ni-NTA; homotetramer 140 kDa; forward primer encodes (M)MARKKIA; LDH-like MDH, group III

What was measured:
Assay in all cases: purified protein
[1] = substrate: NC(=O)c1ccc[n+]([C@@H]2O[C@H](COP(=O)(O)OP(=O)(O)OC[C@H]3O[C@@H](n4cnc5c(N)ncnc54)[C@H](O)[C@@H]3O)[C@@H](O)[C@H]2O)c1; type: biochemical, Methylotuvimicrobium alcaliphilum; conditions: malate oxidation, co-substrate malate, pH 10, 30 °C, varied: cofactor
[2] = substrate: O=C(O)CC(=O)C(=O)O; type: biochemical, Methylotuvimicrobium alcaliphilum; conditions: oxaloacetate reduction, co-substrate NADH, pH 10, 30 °C
[3] = substrate: NC(=O)C1=CN([C@@H]2O[C@H](COP(=O)(O)OP(=O)(O)OC[C@H]3O[C@@H](n4cnc5c(N)ncnc54)[C@H](O)[C@@H]3O)[C@@H](O)[C@H]2O)C=CC1; type: biochemical, Methylotuvimicrobium alcaliphilum; conditions: oxaloacetate reduction, co-substrate oxaloacetate, pH 10, 30 °C, varied: cofactor
[4] = substrate: O=C(O)C[C@H](O)C(=O)O; conditions: malate oxidation, co-substrate NAD+
[5] = substrate: NC(=O)c1ccc[n+]([C@@H]2O[C@H](COP(=O)(O)OP(=O)(O)OC[C@H]3O[C@@H](n4cnc5c(N)ncnc54)[C@H](O)[C@@H]3O)[C@@H](O)[C@H]2O)c1; type: biochemical, Methylosinus trichosporium; conditions: malate oxidation, co-substrate malate, pH 9.5, 30 °C, varied: cofactor
[6] = substrate: O=C(O)CC(=O)C(=O)O; type: biochemical, Methylosinus trichosporium; conditions: oxaloacetate reduction, co-substrate NADH, pH 9.5, 30 °C
[7] = substrate: NC(=O)C1=CN([C@@H]2O[C@H](COP(=O)(O)OP(=O)(O)OC[C@H]3O[C@@H](n4cnc5c(N)ncnc54)[C@H](O)[C@@H]3O)[C@@H](O)[C@H]2O)C=CC1; type: biochemical, Methylosinus trichosporium; conditions: oxaloacetate reduction, co-substrate oxaloacetate, pH 9.5, 30 °C, varied: cofactor

Row | Protein | Km [1] [mM] | Km [2] [mM] | kcat [2] [s⁻¹] | Km [3] [mM] | Km ([4]; pH 10, 30 °C, pH 10.0) [mM] | kcat ([4]; pH 10, 30 °C, pH 10.0) [s⁻¹] | Km ([4]; pH 9.5, 30 °C, pH 9.5) [mM] | kcat ([4]; pH 9.5, 30 °C, pH 9.5) [s⁻¹] | Km [5] [mM] | Km [6] [mM] | kcat [6] [s⁻¹] | Km [7] [mM]
1 | B1 | 0.45 ± 0.08 | 0.34 ± 0.03 | 870 | 0.0252 ± 0.0004 | 0.11 ± 0.01 | 621 | – | – | – | – | – | –
2 | B2 | – | – | – | – | – | – | 1.28 ± 0.17 | 516 | 0.33 ± 0.04 | 0.059 ± 0.007 | 1141 | 0.0376 ± 0.0046
